# Source: patent US20260209320A1
# T1: Peptide 5 (human)
# T1 sequence (peptide): QQQPPPPPPPPPPPQ
# T2: Peptide 41 (mouse)
# T2 sequence (peptide): PPQPPPQGQPPPPPP
# T3: Peptide 27 (cyno)
# T3 sequence (peptide): PPPPPPPPPPPPQLP
# T4: Peptide 23 (cyno)
# T4 sequence (peptide): QQQQQQQQQQPPPPP
# T5: Peptide 19 (cyno)
# T5 sequence (peptide): PQAQPMLPQPQPPPP
# T6: Peptide 14 (human, cyno)
# T6 sequence (peptide): PQPQPPPPPPPPPPG
# T7: Peptide 15 (human, cyno)
# T7 sequence (peptide): QPQPPPPPPPPPPGP
# T8: Peptide 6 (human)
# T8 sequence (peptide): QQPPPPPPPPPPPQL
# T9: Peptide 20 (cyno)
# T9 sequence (peptide): QAQPMLPQPQPPPPP
# B1: ATL_0005335 (antibody, V domains shown)
# VH: EVQLVESGGGLVKPGGSLRLSCAASGFTFNKAWMNWVRQAPGKGLEWVGRIKSGIDGGTTDYAAPVQGRFTISRDDSKNTVYLQMNSLNTEDTAVYYCIPPPYYYYYGLDVWGQGTTVTVSS
# VL: QSALTQPASVSGSPGQSITISCTGTSSDIGSYNLVSWYQQHPGNAPKPLIYEGSKRPSGVSARFSGSKSGNTASLTISGLQPEDEADYYCSSYAGFNTLVFGGGTKVTVL
# B2: ATL_0005331 (antibody, V domains shown)
# VH: B1 VH
# VL: QSALTQPRSVSGSPGQSITISCTGTSSDVGSYNLVSWFQQHPGKAPKLIIYEVNKRPSGVPDRFSGSKSGNTASLTVSGLQAEDEADYYCGSYAGTNNVFGTGTKLTVL
# Assays:
# Peptide 5 (human) [1] = target: T1, Peptide 5 (human); experiment: peptide microarray; Sp H; IgG 1 µg/ml
# Peptide 41 (mouse) [2] = target: T2, Peptide 41 (mouse); experiment: peptide microarray; Sp M; IgG 10 µg/ml
# Peptide 27 (cyno) [3] = target: T3, Peptide 27 (cyno); experiment: peptide microarray; Sp C2; IgG 1 µg/ml
# Peptide 23 (cyno) [4] = target: T4, Peptide 23 (cyno); experiment: peptide microarray; Sp C2; IgG 1 µg/ml
# Peptide 41 (mouse) [5] = target: T2, Peptide 41 (mouse); experiment: peptide microarray; Sp M; IgG 1 µg/ml
# Peptide 27 (cyno) [6] = target: T3, Peptide 27 (cyno); experiment: peptide microarray; Sp C2; IgG 10 µg/ml
# Peptide 23 (cyno) [7] = target: T4, Peptide 23 (cyno); experiment: peptide microarray; Sp C2; IgG 10 µg/ml
# Peptide 19 (cyno) [8] = target: T5, Peptide 19 (cyno); experiment: peptide microarray; Sp C1; IgG 10 µg/ml
# Peptide 19 (cyno) [9] = target: T5, Peptide 19 (cyno); experiment: peptide microarray; Sp C1; IgG 1 µg/ml
# Peptide 5 (human) [10] = target: T1, Peptide 5 (human); experiment: peptide microarray; Sp H; IgG 10 µg/ml
# Peptide 14 (human, cyno) [11] = target: T6, Peptide 14 (human, cyno); experiment: peptide microarray; Sp H; IgG 1 µg/ml
# Peptide 15 (human, cyno) [12] = target: T7, Peptide 15 (human, cyno); experiment: peptide microarray; Sp H; IgG 1 µg/ml
# Peptide 6 (human) [13] = target: T8, Peptide 6 (human); experiment: peptide microarray; Sp H; IgG 1 µg/ml
# Peptide 20 (cyno) [14] = target: T9, Peptide 20 (cyno); experiment: peptide microarray; Sp C2 (first of two rows printed SEQ ID NO: 73); IgG 10 µg/ml
# Peptide 14 (human, cyno) [15] = target: T6, Peptide 14 (human, cyno); experiment: peptide microarray; Sp C2; IgG 1 µg/ml
# Peptide 15 (human, cyno) [16] = target: T7, Peptide 15 (human, cyno); experiment: peptide microarray; Sp C2; IgG 1 µg/ml
# Peptide 14 (human, cyno) [17] = target: T6, Peptide 14 (human, cyno); experiment: peptide microarray; Sp C2; IgG 10 µg/ml
# Peptide 15 (human, cyno) [18] = target: T7, Peptide 15 (human, cyno); experiment: peptide microarray; Sp C2; IgG 10 µg/ml
# Peptide 20 (cyno) [19] = target: T9, Peptide 20 (cyno); experiment: peptide microarray; Sp C1; IgG 10 µg/ml
# Peptide 20 (cyno) [20] = target: T9, Peptide 20 (cyno); experiment: peptide microarray; Sp C2 (second of two rows printed SEQ ID NO: 73); IgG 10 µg/ml
# Peptide 20 (cyno) [21] = target: T9, Peptide 20 (cyno); experiment: peptide microarray; Sp C1; IgG 1 µg/ml
# Peptide 20 (cyno) [22] = target: T9, Peptide 20 (cyno); experiment: peptide microarray; Sp C2 (first of two rows printed SEQ ID NO: 73); IgG 1 µg/ml
# Peptide 14 (human, cyno) [23] = target: T6, Peptide 14 (human, cyno); experiment: peptide microarray; Sp H; IgG 10 µg/ml
# Peptide 15 (human, cyno) [24] = target: T7, Peptide 15 (human, cyno); experiment: peptide microarray; Sp H; IgG 10 µg/ml
# Peptide 6 (human) [25] = target: T8, Peptide 6 (human); experiment: peptide microarray; Sp H; IgG 10 µg/ml
# Peptide 20 (cyno) [26] = target: T9, Peptide 20 (cyno); experiment: peptide microarray; Sp C2 (second of two rows printed SEQ ID NO: 73); IgG 1 µg/ml
binder,measurement,setting,value
B1,corrected fluorescence intensity,Peptide 5 (human) [1],0
same,corrected fluorescence intensity,Peptide 41 (mouse) [2],0
same,corrected fluorescence intensity,Peptide 27 (cyno) [3],0
same,corrected fluorescence intensity,Peptide 23 (cyno) [4],0
same,corrected fluorescence intensity,Peptide 41 (mouse) [5],256
same,corrected fluorescence intensity,Peptide 27 (cyno) [6],604
same,corrected fluorescence intensity,Peptide 23 (cyno) [7],524
same,corrected fluorescence intensity,Peptide 19 (cyno) [8],453
same,corrected fluorescence intensity,Peptide 19 (cyno) [9],79
same,corrected fluorescence intensity,Peptide 5 (human) [10],593
B2,corrected fluorescence intensity,"Peptide 14 (human, cyno) [11]",84
same,corrected fluorescence intensity,"Peptide 15 (human, cyno) [12]",134
same,corrected fluorescence intensity,Peptide 5 (human) [1],0
same,corrected fluorescence intensity,Peptide 6 (human) [13],0
same,corrected fluorescence intensity,Peptide 20 (cyno) [14],0
same,corrected fluorescence intensity,Peptide 27 (cyno) [3],99.2
same,corrected fluorescence intensity,"Peptide 14 (human, cyno) [15]",45.5
same,corrected fluorescence intensity,"Peptide 15 (human, cyno) [16]",50
same,corrected fluorescence intensity,Peptide 27 (cyno) [6],321
same,corrected fluorescence intensity,"Peptide 14 (human, cyno) [17]",464
same,corrected fluorescence intensity,"Peptide 15 (human, cyno) [18]",478
same,corrected fluorescence intensity,Peptide 20 (cyno) [19],504
same,corrected fluorescence intensity,Peptide 20 (cyno) [20],0
same,corrected fluorescence intensity,Peptide 20 (cyno) [21],178
same,corrected fluorescence intensity,Peptide 20 (cyno) [22],0
same,corrected fluorescence intensity,"Peptide 14 (human, cyno) [23]",412
same,corrected fluorescence intensity,"Peptide 15 (human, cyno) [24]",382
same,corrected fluorescence intensity,Peptide 5 (human) [10],382
same,corrected fluorescence intensity,Peptide 6 (human) [25],397
same,corrected fluorescence intensity,Peptide 20 (cyno) [26],51.5
